Source: US20260224723A1 (DUALITY BIOLOGICS SUZHOU, published 2026)

B1: W301088-1.145.16-xIgG1KV320 (antibody, V domains shown)
VH: DVQLQESGPGLVKPSQSLSLTCTVTDYSITGDYAWNWIRQFPGNKLEWMGYISYSGSTSYNPSLQSRISITRDTSKNQFFLQLNSVTSEDTATYFCARSLGRRWYFVVWGAGTTVTVSA
VL: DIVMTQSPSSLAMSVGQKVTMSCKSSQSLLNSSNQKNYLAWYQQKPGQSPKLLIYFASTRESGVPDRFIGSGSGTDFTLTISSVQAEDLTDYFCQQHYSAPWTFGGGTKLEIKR
B2: Enoblituzumab (MacroGenics) (antibody, V domains shown)
VH: EVQLVESGGGLVQPGGSLRLSCAASGFTFSSFGMHWVRQAPGKGLEWVAYISSDSSAIYYADTVKGRFTISRDNAKNSLYLQMNSLRDEDTAVYYCGRGRENIYYGSRLDYWGQGTTVTVSS
VL: DIQLTQSPSFLSASVGDRVTITCKASQNVDTNVAWYQQKPGKAPKALIYSASYRYSGVPSRFSGSGSGTDFTLTISSLQPEDFATYYCQQYNNYPFTFGQGTKLEIKR
B3: W301088-1.145.16-z3-p1-uIgG1KV320 (antibody, V domains shown)
VH: QVQLQESGPGLVKPSQTLSLTCTVTDYSITGDYAWNWIRQHPGKGLEWIGYISYSGSTSYNPSLQSRVTISRDTSKNQFSLKLSSVTAADTAVYFCARSLGRRWYFVVWGQGTTVTVSS
VL: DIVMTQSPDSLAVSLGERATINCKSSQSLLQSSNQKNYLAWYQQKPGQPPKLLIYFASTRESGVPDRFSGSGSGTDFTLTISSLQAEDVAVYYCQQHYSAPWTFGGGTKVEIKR
notes: Humanized, PTM-removed (VL N027dQ) antibody; human IgG1 LALA, kappa; also called WBP301088; W301088-z3-p1
B4: Antibody-drug conjugate WBP301088-X2 (DAR6) (antibody, human IgG1, kappa, L234A L235A, V domains shown)
VH: B3 VH
VL: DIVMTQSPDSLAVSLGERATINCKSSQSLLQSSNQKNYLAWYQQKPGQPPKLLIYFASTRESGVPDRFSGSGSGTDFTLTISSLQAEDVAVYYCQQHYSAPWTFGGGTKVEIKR
modifications: linker-payload X2 conjugated after TCEP reduction; drug loading (DAR) 5.68 per antibody; sites not stated

Experiments:
[1] = biological target: T1, Cynomolgus monkey full-length B7H3 on transfected FlpinCHO cells (cynomolgus monkey); assay: FACS on cynomolgus monkey B7H3-transfected FlpinCHO cell pool
T1 construct: whole, on cells; also called W3XX088-FlpinCHO.cProl.pool
Procedure: FACS was used to detect the binding of antibodies to cynomolgus monkey B7H3. FlpinCHO cells were transfected with cynomolgus monkey B7H3 (W3XX088-FlpinCHO.cProl.pool) (1×10⁵ cells/well), and the transfected cells were incubated with various concentrations of antibodies (3.16-fold serially diluted with 1×DPBS/1% BSA from 50 nM to 0.0005 nM) in a volume of 100 μL/well in a refrigerator set to 4° C. for 1 h. Anti-human B7H3 reference antibody enoblituzumab (MacroGeneics) was used as a positive control. Human IgG1 isotype antibody was used as a negative control. After washing the cells with 1×DPBS/1% BSA, Alexa 647 goat anti-human antibody (diluted in a 1:500 ratio in 1×DPBS/1% BSA) was added. The cells were incubated in a refrigerator set to 4° C. for 0.5 h in the dark. The mean fluorescence intensity (MFI) of the cells was measured by a flow cytometry and analyzed by FlowJo. EC₅₀ values were calculated by four-parameter non-linear regression analysis using GraphPad Prism 7 software.

[2] = biological target: T2, Human B7-H3(4Ig), His Tag (human, UniProt Q5ZPR3 29-461); assay: ELISA, plate coated with 2 µg/mL recombinant human B7-H3 (4Ig), serially diluted antibody, HRP anti-human secondary antibody, OD450
T2 construct: also called recombinant human B7H3 antigen; human B7-H3 protein; not shown: His tag
T2 sequence (looked up): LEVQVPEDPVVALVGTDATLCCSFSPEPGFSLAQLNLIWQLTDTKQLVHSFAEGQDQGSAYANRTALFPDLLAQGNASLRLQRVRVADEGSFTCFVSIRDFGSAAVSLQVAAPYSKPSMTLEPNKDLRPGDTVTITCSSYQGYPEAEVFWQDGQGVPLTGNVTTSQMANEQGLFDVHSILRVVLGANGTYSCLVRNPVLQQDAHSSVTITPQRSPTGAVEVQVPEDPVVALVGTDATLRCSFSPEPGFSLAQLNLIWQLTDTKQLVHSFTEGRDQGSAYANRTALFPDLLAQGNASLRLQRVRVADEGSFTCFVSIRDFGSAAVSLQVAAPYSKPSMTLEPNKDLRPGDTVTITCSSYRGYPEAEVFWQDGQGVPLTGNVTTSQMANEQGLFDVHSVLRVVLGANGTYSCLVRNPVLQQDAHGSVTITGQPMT
Procedure: A 96-well ELISA plate was coated with 2 μg/mL recombinant human B7H3 antigen (see the table above) at 30 μL/well and kept at 4° C. overnight. The following day, the well plate was washed 3 times with PBST and then blocked with 5% skim milk for 2 h. […] The plate was then washed 3 times with PBST, and an HRP-labeled anti-human secondary antibody diluted in a 1:5000 ratio was then added at 100 μL/well and incubated for 1 h. After the incubation was complete, the plate was washed six times with PBST, and TMB (SurModics, TMBS-1000-01) was added for color development. Based on the results of the color development, the reaction was stopped by adding 2M HCl, and the plate was read by a microplate reader (Molecular Devices, SpecterMax 190) at OD450.

[3] = biological target: T3, Human BTNL2 protein, His Tag (human, UniProt Q9UIR0-1 24-455, limits assumed); assay: ELISA, protein immobilized on plate, serially diluted antibody
T3 construct: Bought protein; also called AtaGenix ATMP02212HU; not shown: His tag
T3 sequence (looked up): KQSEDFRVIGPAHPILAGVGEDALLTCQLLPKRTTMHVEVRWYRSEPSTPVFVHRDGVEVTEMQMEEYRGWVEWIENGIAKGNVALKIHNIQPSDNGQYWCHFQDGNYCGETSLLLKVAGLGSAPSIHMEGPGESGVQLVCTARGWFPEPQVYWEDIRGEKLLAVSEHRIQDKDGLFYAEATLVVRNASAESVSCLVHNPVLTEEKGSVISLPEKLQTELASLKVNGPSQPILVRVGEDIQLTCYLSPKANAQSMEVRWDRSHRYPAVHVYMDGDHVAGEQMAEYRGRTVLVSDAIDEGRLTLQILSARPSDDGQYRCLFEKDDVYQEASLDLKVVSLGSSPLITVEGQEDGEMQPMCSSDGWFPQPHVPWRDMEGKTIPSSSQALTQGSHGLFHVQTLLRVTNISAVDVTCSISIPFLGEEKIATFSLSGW
Procedure: (§1) Human PD-L1 protein (see the table above), human B7-H2 protein, human B7-H3 protein, human B7-H4 protein, human B7-H5 protein, human B7-H6 protein, human B7-1 protein, human B7-2 protein, human PD-L2 protein, human B7-H7 protein, and human BTNL2 protein were separately immobilized on 96-well plates by incubation at 4° C. overnight. The 96-well plates were then blocked by incubation with 1% BSA in PBS at 37° C. for 1 h. After blocking, the 96-well plates were washed 3 times with PBST (PBS containing 0.05% Tween 20). […] After incubation, the 96-well plates were washed 3 times with PBST, incubated with a secondary antibody (see the table above) in binding buffer at 37° C. for 1 h, and then washed again. TMB was added for color development, and the reaction was stopped by 1 M H₂SO₄.

[4] = biological target: T3, Human BTNL2 protein, His Tag; assay: ELISA, protein immobilized on plate, serially diluted antibody-drug conjugate
Procedure: as §1

| Binder | EC50 [1] [nM] | EC50 (read off the curve) [2] [µg/mL] | binding result [3] | binding result [4] |
| --- | --- | --- | --- | --- |
| B1 | 5.25 |  |  |  |
| B2 | 9.58 |  |  |  |
| B3 | 4.68 | ~0.1 | no binding |  |
| B4 |  |  |  | no binding |
